The data set deals with the molecule itself. As to the kind of experiment: negative-stain transmission electron microscopy.

B1: Crimean–Congo hemorrhagic fever virus nucleoprotein (strain IbAr10200), recombinant, untagged (natural protein)
chain: MENKIEVNNKDEMNRWFEEFKKGNGLVDTFTNSYSFCESVPNLDRFVFQMASATDDAQKDSIYASALVEATKFCAPIYECAWVSSTGIVKKGLEWFEKNAGTIKSWDESYTELKVDVPKIEQLTGYQQAALKWRKDIGFRVNANTAALSNKVLAEYKVPGEIVMSVKEMLSDMIRRRNLILNRGGDENPRGPVSHEHVDWCREFVKGKYIMAFNPPWGDINKSGRSGIALVATGLAKLAETEGKGIFDEAKKTVEALNGYLDKHKDEVDRASADSMITNLLKHIAKAQELYKNSSALRAQSAQIDTAFSSYYWLYKAGVTPETFPTVSQFLFELGKQPRGTKKMKKALLSTPMKWGKKLYELFADDSFQQNRIYMHPAVLTAGRISEMGVCFGTIPVANPDDAAQGSGHTKSILNLRTNTETNNPCAKTIVKLFEVQKTGFNIQDMDIVASEHLLHQSLVGKQSPFQNAYNVKGNATSANII
notes: also called CCHFV NP; NP
On to B1, for which the binding result is recorded as “binds”.
